Numbering of substitutions follows the chain as printed. Numbers in names are those of the source.
Assays:
[1] = target: T1, human TrkA on TF1 erythroleukemic cells (human, UniProt P04629 33-796); assay: cell-based or functional assay
[2] = target: T1, human TrkA on TF1 erythroleukemic cells; assay: cell-based or functional assay; remark: listed apart in the source
[3] = target: T2, TrkA receptor immobilized on the Biacore chip (UniProt P04629 33-423, limits assumed); assay: SPR, Biacore 3000; Table 4 column Binding affinity (nM), TrkA receptor
Description: (§1) The binding experiments were performed on Biacore 3000 at 25° C. Receptors were directly immobilized by direct immobilization using EDC/NHS amine coupling kit and GE protocol. The receptor was coated until the desired RU. The unoccupied active sites on the chip were quenching by flowing 1 M ethanol amine. […] Data were analyzed using Biacore 3000 bia evaluation software (Biacore) using the values after reference subtraction. KD was determined by applying either local (for scouting) or global (full kinetics) 1:1 Langmuir fitting model. Full kinetics was performed with the range of analyte at a 2-fold serial dilution and flowed over the ligand from lowest to highest concentration range.

[4] = target: T3, p75^NTR receptor immobilized on the Biacore chip (UniProt P08138 29-250); assay: SPR, Biacore 3000; Table 4 column Binding affinity (nM), P75^NTR
T3 sequence (looked up): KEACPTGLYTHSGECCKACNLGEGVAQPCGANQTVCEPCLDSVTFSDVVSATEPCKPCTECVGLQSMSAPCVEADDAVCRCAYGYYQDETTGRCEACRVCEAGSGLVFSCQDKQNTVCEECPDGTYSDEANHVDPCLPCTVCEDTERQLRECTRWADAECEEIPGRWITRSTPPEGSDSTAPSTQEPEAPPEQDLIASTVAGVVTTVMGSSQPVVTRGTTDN
Description: as §1

[5] = target: T1, human TrkA on TF1 erythroleukemic cells; assay: cell-based or functional assay; remark: listed apart in the source
[6] = target: T2, TrkA receptor immobilized on the …; assay: SPR, Biacore 3000; ratio of the affinity for TrkA over that for p75^NTR
Description: as §1

[7] = target: T2, TrkA receptor immobilized on the …; assay: SPR, Biacore 3000; against NGF wt
Description: as §1

[8] = target: T3, p75^NTR receptor immobilized on the …; assay: SPR, Biacore 3000; against NGF wt
Description: as §1

[9] = target: T2, TrkA receptor immobilized on the …; assay: SPR, Biacore 3000, 25 C, receptor amine-coupled on chip, NGF mutein as analyte, 1:1 Langmuir
Description: as §1

[10] = target: T3, p75^NTR receptor immobilized on the …; assay: SPR, Biacore 3000, 25 C, receptor amine-coupled on chip, NGF mutein as analyte
Description: as §1

T1 sequence (P04629 33-796): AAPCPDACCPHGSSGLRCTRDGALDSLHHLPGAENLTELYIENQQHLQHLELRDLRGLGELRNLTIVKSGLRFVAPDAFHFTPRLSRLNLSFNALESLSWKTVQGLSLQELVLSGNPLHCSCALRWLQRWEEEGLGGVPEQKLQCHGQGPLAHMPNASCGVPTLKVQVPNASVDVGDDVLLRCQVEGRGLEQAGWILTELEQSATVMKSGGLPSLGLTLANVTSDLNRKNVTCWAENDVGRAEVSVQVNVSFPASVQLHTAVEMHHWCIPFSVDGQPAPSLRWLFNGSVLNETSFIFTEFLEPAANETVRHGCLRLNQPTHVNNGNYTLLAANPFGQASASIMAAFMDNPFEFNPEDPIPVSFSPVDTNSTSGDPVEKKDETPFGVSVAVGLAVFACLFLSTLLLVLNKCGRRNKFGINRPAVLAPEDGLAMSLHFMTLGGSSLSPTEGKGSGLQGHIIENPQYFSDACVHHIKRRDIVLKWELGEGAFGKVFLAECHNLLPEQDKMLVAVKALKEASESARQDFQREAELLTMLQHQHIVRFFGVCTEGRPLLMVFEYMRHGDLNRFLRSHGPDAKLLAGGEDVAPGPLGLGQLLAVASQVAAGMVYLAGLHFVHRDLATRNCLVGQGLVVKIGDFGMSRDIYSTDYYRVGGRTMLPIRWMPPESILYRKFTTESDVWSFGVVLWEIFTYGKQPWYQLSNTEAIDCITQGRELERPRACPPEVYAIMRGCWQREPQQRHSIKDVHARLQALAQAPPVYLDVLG
T2 sequence (P04629 33-423 limits assumed): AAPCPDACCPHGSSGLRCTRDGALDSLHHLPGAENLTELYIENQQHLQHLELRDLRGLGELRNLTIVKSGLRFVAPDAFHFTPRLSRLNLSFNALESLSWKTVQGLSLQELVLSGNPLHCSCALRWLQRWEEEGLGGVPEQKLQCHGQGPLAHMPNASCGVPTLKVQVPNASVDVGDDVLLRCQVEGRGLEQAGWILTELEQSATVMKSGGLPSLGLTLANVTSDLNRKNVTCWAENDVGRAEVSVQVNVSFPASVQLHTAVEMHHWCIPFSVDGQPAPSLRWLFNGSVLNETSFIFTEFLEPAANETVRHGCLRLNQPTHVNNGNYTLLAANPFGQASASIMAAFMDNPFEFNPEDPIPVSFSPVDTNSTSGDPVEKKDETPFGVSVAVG

B1: NGF K34A/R69A (ligand)
chain: SSSHPIFHRGEFSVCDSVSVWVGDKTTATDIKGAEVMVLGEVNINNSVFKQYFFETKCRDPNPVDSGCAGIDSKHWNSYCTTTHTFVKALTMDGKQAAWRFIRIDTACVCVLSRKAVRRA
With B1 the “EC50 in TF-1 proliferation assay, protein kept 7 days at 4° C.” value (shortened to “EC50 in TF-1 proliferation assay … at 4° C.”) [1] was 9.13 ng/mL.

B2: NGF K34D/K32A (ligand)
chain: B1 chain with K32A, A34D, A69R
B2 was tested, and the “EC50 in TF-1 proliferation assay, 4° C.” value [2] was 1.91 ng/mL and the “EC50 in TF-1 proliferation assay, after storage at 55° C.” value [2] was 9.7 ng/mL.

B3: NGF K34D/R100E (ligand)
chain: B1 chain with A34D, A69R, R100E
For B3, the “EC50 in TF-1 proliferation assay … at 4° C.” value [1] was 58.8 ng/mL.

B4: NGF K34A/R69A/R100E (ligand)
chain: B1 chain with R100E
In the case of B4, the “EC50 in TF-1 proliferation assay … at 4° C.” value [1] is reported as 689 ng/mL.

B5: NGF K34D/R69A (ligand)
chain: B1 chain with A34D
For B5, the “EC50 in TF-1 proliferation assay … at 4° C.” value [1] was 12.3 ng/mL.

B6: NGF K34D/R69A/R100D (ligand)
chain: B1 chain with A34D, R100D
With B6 the “EC50 in TF-1 proliferation assay … at 4° C.” value [1] was 23 ng/mL.

B7: NGF K34D/K32D (ligand)
chain: B1 chain with K32D, A34D, A69R
notes: Double mutein of mature human NGF; expressed in HEK293 cells; also called NGF34D/K32D; NGF34D/32 D
With B7 the Kd [3] was 0.61 nM, the Kd [4] was greater than 200 nM and the “TrkA receptor Bio-activity” value [5] was 2.62 ng/mL. The “Binding selectivity (TrkA/p75^NTR)” value [6] was greater than 328 fold, the “binding affinity, % of wildtype” value [7] was 5.9 % of wildtype and the “fold reduction of binding affinity against wildtype” value [7] was 18 fold. The “fold reduction of binding affinity against wildtype” value [8] was 625 fold, the Kd [9] was 0.607 nM and the koff [9] was 0.00398 s⁻¹. For the same binder, the kon [9] was 6.54e+06 M⁻¹ s⁻¹, the Kd [10] was greater than 200 nM and the “EC50 in TF-1 proliferation assay, 4° C.” value [2] was 2.62 ng/mL. For the same binder, the “EC50 in TF-1 proliferation assay, after storage at 55° C.” value [2] was 1.15 ng/mL.

Reference: patent US20230272023A1 (HUMAN CELL, published 2023)
